This note sets out measurements from the supplement of paper PMC9942255.

This series deals with Bacillus subtilis DB104 (SP-AmyQ fusion secretion). As to the kind of experiment: AmyQ secretion efficiency, weighted average sort bin (1 = best secretion, 10 = worst) (bin number (weighted average, 1-10)); higher = lower secretion efficiency. An outline of the steps: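 The secretion score gives the average bin number weighted by read frequency and normalised to beads per bin, with low-abundance sequences excluded. Bins were 10 equally populated green/red fluorescence ratio fractions of occupied ~65 nL alginate beads, sorted by large-particle flow cytometry. The beads held fluorescein-starch and about 0.3 cells each of an amyE-integrated B. subtilis DB104 library fusing designed signal peptides to mature AmyQ, and they were grown about 13 h at room temperature and stained with nile red before sorting and Illumina sequencing.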

The sequence MKRIRIPMTYRYQSALTIAPLSFASAEEN returned an AmyQ secretion efficiency of 7.35.

For MRKKCSVCLWILVLLLSCKRGKSAYAATS, the AmyQ secretion efficiency came to 6.83.

Regarding MKKIVSILFMFGLVMGFSQFQPSTVFAAKK, the AmyQ secretion efficiency was 2.86.

Sequence MKRRRRKLLSTLLIGIMLLTFAPSAFAKQD gave an AmyQ secretion efficiency of 1.81.

Take MRSKKLWISLLFALTLIKKKAFSNMSAQAAGK: the AmyQ secretion efficiency was determined as 8.69.

In turn, MGLGKKLSVAVAASFMSLSISLPGVQDAEG had an AmyQ secretion efficiency of 3.93.

In turn, MRKKCSVCKKRRKRLLSCLSGKSAYAATS yielded an AmyQ secretion efficiency of 7.64.

With MGLGKKLSVAVAASFMSLSISLPGTQAAEG, the AmyQ secretion efficiency was 1.77.

As for MKVCQKSIRFLVSLIIGTFVISVPFMANAQSD, the AmyQ secretion efficiency stood at 1.22.

MPYLKRKYRLLVTGLFMSLFAVTATASAQTG: the AmyQ secretion efficiency turned out to be 1.78.

Regarding MKKRLIAPMLLSAASLAFFAMSGSYQAAAY, the AmyQ secretion efficiency came out at 6.45.

As to MKSKWMSRKRRVAVGFSFTQVMVHAGET, the AmyQ secretion efficiency came to 6.31.

The sequence MTMLRKIIGWILLLCIIKKKAFTVIASGKEV returned an AmyQ secretion efficiency of 7.58.

The sequence MRKTIFAFLTGLMMFIFTSSGTITAASASPD gave an AmyQ secretion efficiency of 1.89.

Take MRPVFPLILSAVLFLSCFEGAEQTEASASKR: the AmyQ secretion efficiency was 3.25.

Consider MFNTLFSVCFLAALIMAFTLPNSVYAQKP, for which the AmyQ secretion efficiency turned out to be 4.02.

Sequence MKKKLAAGLTASAIVGTTLVVTPAEWATI yielded an AmyQ secretion efficiency of 7.78.

As to MKRIRIPMTLALGAALTIAPLSFASAAKR, the AmyQ secretion efficiency stood at 4.18.

In turn, MKRLLSTLLIGIMLLVTFAPSAFAKQD yielded an AmyQ secretion efficiency of 2.15.

MRKNRILALFVLSLGLLFSFMVTPVSAASK gave an AmyQ secretion efficiency of 1.99.

MKRITINIITMFIAAAVIVFSLTGTAEAAEK came in with an AmyQ secretion efficiency of 2.39.

Take MNKLKRLSMLTVMIASVFIFSSHALGAQY: the AmyQ secretion efficiency is 1.69.

For the sequence MLKKKWMTGGTKRCLAAGGFSYNAFATEN, the AmyQ secretion efficiency is 7.54.

Take MNRRKILLSSALSLGMLVSAAPVLATSS: the AmyQ secretion efficiency worked out at 2.39.

MKRFSTAYLLLGILCSAAVFLIGAPSRALGDED registered an AmyQ secretion efficiency of 6.23.

Take MLKRTSFVSSLFISSAVLLSILLPSGQLHAQSA: the AmyQ secretion efficiency was 1.71.

Turning to MKKRKKKVSSLFISSAVLLSILLPSGQAHAQSA, the AmyQ secretion efficiency is 1.03.

As to MNFKKTVVSALSISALALEEEDEDASAHEI, the AmyQ secretion efficiency was determined as 6.1.

Sequence MGMKKKLSLGVASAAGGTWAAFN gave an AmyQ secretion efficiency of 8.23.

In the case of MRFTKKKTFLSVLGLAAVFPLTAQAEKA, the AmyQ secretion efficiency stood at 3.64.

Sequence MLKKKWMVGLLAGCLAAGGFSYNAFKTEN returned an AmyQ secretion efficiency of 5.95.

Take MKLSVKIAGVLTVAATAKMYATAKGN: the AmyQ secretion efficiency was 7.17.

MTMLRKIRKWILLLCIIPLFAFTVIASGKEV returned an AmyQ secretion efficiency of 6.76.

Take MNLRKILLSSALSLGMLVSAAPELATSS: the AmyQ secretion efficiency turned out to be 3.72.

MKRMIVRMTLPLLIVCLAFSSFSASARAASF registered an AmyQ secretion efficiency of 1.55.

MRPVFPLILSAVLFLSCFFGAREASASKR came in with an AmyQ secretion efficiency of 1.24.

MKNMSCKLVVSVTLFFSFLTIGPLAHADDE returned an AmyQ secretion efficiency of 3.5.

MFKKLLLATSALTFSLSLVLRRKKKHAKAQEV gave an AmyQ secretion efficiency of 5.87.

Consider MKKWLRRAVSLAIAIVLFMYTKGEAKAAGM, for which the AmyQ secretion efficiency was 2.72.

MRNLTKTKRRKAGLCTAAQMVFVTHASAEES: the AmyQ secretion efficiency amounted to 6.94.

Sequence MKRMIRTLPLLIVCLAFSSFSASARAASE came in with an AmyQ secretion efficiency of 2.17.

Sequence MKRKLLSSLAISALSLGLLVSAPTASFAASS returned an AmyQ secretion efficiency of 1.56.

MTLTSGFLLLSCLALSTVFVATTIANAPTH gave an AmyQ secretion efficiency of 5.02.

Sequence MKTLRTLCVLMILSGVIFFGLKLDAKDI came in with an AmyQ secretion efficiency of 7.62.

Take MKSKGSIMACLILFSFTITTFINTETISAEED: the AmyQ secretion efficiency stood at 4.14.

In the case of MRKKRVITCVMAASLTLGSLLPAGYASAADD, the AmyQ secretion efficiency was 5.09.

In the case of MRKKRGYRCGMAASLTLGSLLPAGYASAKED, the AmyQ secretion efficiency came to 6.63.

As for MKKRLIAPMLLSAASLAFFAMSGSLQAAAY, the AmyQ secretion efficiency amounted to 5.33.

On to MKKKIVAGLAVSAVVGAEAKTI, for which the AmyQ secretion efficiency was found to be 8.76.

For MTKKAWFLPLVCVLLIVSWLASAASASAQTT, the AmyQ secretion efficiency amounted to 2.08.

MNKKYFKRRKCKRFTSALFPTFSSVTAAQG yielded an AmyQ secretion efficiency of 6.71.

As for MKKRLIQVMIMFTLLLRRKRRRRADAADS, the AmyQ secretion efficiency was 8.45.

Sequence MRSKKLWISLLFALTLIFTMAFSNMSAQWAGK returned an AmyQ secretion efficiency of 6.53.

MPIKKKCLAVTLVFGSMSFPTLTNSGGFKE showed an AmyQ secretion efficiency of 5.38.

The sequence MKKWMILILAGIALFVFISPLKSHKT yielded an AmyQ secretion efficiency of 7.86.

MKRQKQKASLVLFAVVFVFAVKGAPAKAETH displayed an AmyQ secretion efficiency of 2.05.

Turning to MTKRITYSLLALLAVVAFAFTDSSKAKAAEA, the AmyQ secretion efficiency is 2.05.

Consider MKFVKRRGSRGQTTSTLSVTSLFALQPSAKAAEH, for which the AmyQ secretion efficiency worked out at 5.84.

Regarding MMLMMSVSMFLVALTMCGGLFVTPAKAVKT, the AmyQ secretion efficiency was 4.77.

MKLKKRVSMFLVALTMCGGLFVTPQAKAVKT yielded an AmyQ secretion efficiency of 3.89.

Turning to MKKLLAAGIIGLLTVSIASPSFAASC, the AmyQ secretion efficiency turned out to be 1.59.

MKKTIMSFVAVAALSTTAFFAIASAKEI: the AmyQ secretion efficiency came to 6.16.

In the case of MKKVLMAFIICLSLILSVLAAPPSGQKAESV, the AmyQ secretion efficiency was 7.08.

In turn, MKSKWMSGLLLVAVGFSFTQVMVHAGRR had an AmyQ secretion efficiency of 7.76.

For the sequence MKKRLIQVMIMFTLLLRKRRSADAADS, the AmyQ secretion efficiency amounted to 6.79.

Regarding MKIRKMFMFILLSSALSFGMLISAVPALAAGT, the AmyQ secretion efficiency was 2.01.

MKKWIYVVLVLSIAGIGGFSVHWASS came in with an AmyQ secretion efficiency of 7.53.

As for MKIRKILLMMALFFMMLISAVPALAAGT, the AmyQ secretion efficiency worked out at 2.45.

In turn, MKSKWMSGLLLVAVGFSFTQVMGHAGET displayed an AmyQ secretion efficiency of 5.88.

The sequence MKWMCSICCAAVLLAGIAIAQAEAV registered an AmyQ secretion efficiency of 6.86.

As to MFSIGSIMACLILFSFTITTFINTETISAFSN, the AmyQ secretion efficiency was found to be 5.65.

Consider MRGKSAVLLSLIMLIAGFLISFNFQM, for which the AmyQ secretion efficiency was 6.3.

MMQIMIFLTSFMLLAMTGQTALAKDV displayed an AmyQ secretion efficiency of 4.32.

MKRIRIPMTLALGAALTIAPLSFASAATD: the AmyQ secretion efficiency is 2.9.

For MKLAKRVSALTPSTTLAIVAKAKEL, the AmyQ secretion efficiency is 6.85.

Sequence MKLAKRVSALTPSTTLAITAKHKEL yielded an AmyQ secretion efficiency of 6.77.

As to MNSMTIWTIILGALLVCCIAVAYTLTKSQAGASSS, the AmyQ secretion efficiency was 6.92.

In turn, MAIIIAIIAAVIVIAALITFNVRNRSPG registered an AmyQ secretion efficiency of 7.6.

Take MKRLLVSLRVWMVFLMNWVTPDRKTAAARRK: the AmyQ secretion efficiency is 7.14.

On to MLTKRLRKKKRRLLGLIAWFPGAAQAEEK, for which the AmyQ secretion efficiency amounted to 7.67.

MKKWMITIAMLILAGIALFVFISPWKSHKT registered an AmyQ secretion efficiency of 6.16.

For MVKKWLIQFAVMLSVLSTFTYSASIVGV, the AmyQ secretion efficiency was 8.01.

MKTKTLKRFSAILTLSIFAPNETFAQTA gave an AmyQ secretion efficiency of 3.24.

With MLKKKWMVGLLAGCLAAGGFSYNDFATEN, the AmyQ secretion efficiency stood at 5.83.

MKVLLSALLLLLFAFSPSASGKKL showed an AmyQ secretion efficiency of 4.69.

Turning to MKRLLSTLLIGIMLLTFAPSCFAKQD, the AmyQ secretion efficiency was 3.09.

Consider MKKMLGKLLITAGILVFFAVVVKDVFSAGL, for which the AmyQ secretion efficiency was determined as 3.11.

On to MRGKSAVLLSLIMLIAGFLISFEFQM, for which the AmyQ secretion efficiency stood at 5.74.

Take MRKVITCVMAASLTLGSLLPAGYATAKED: the AmyQ secretion efficiency was 3.88.

The sequence MAAQTDYKKQVVGILLSLAFVLFVFSRSERHE yielded an AmyQ secretion efficiency of 4.39.

For the sequence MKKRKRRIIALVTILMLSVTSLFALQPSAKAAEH, the AmyQ secretion efficiency was determined as 2.06.

MKKRLIAPMLLSAASLAFFAMSGSQQAAAY had an AmyQ secretion efficiency of 4.52.

Sequence MLKKTILAAFILVGSTLGAFSFSSDASAKHV showed an AmyQ secretion efficiency of 2.16.

With MRMLWRSLALCGLALTLAPCAQCAEP, the AmyQ secretion efficiency turned out to be 3.11.

As for MKSKGSIMIFIFACLILFSFTITTFINTETISAFSN, the AmyQ secretion efficiency amounted to 7.77.

MRGKSAVLLSLIMLIAGFLISFDFQM showed an AmyQ secretion efficiency of 6.6.

Sequence MKTKTGFIFSAILTLSIFAPNETFAQTA yielded an AmyQ secretion efficiency of 1.63.

Take MRNLTKTSLLLAGLCTAAQMVFVTHLSAEES: the AmyQ secretion efficiency turned out to be 3.52.

In the case of MKLSVKIAGVLTVAAAAMVAIMGATAKGN, the AmyQ secretion efficiency worked out at 8.27.

As for MRPVFPLILSAVLFLSCFFAATVFFASASKR, the AmyQ secretion efficiency was 7.

MRKKRRRSLITLGLASVIGTSSFLIPFTSKTASAETL had an AmyQ secretion efficiency of 1.75.

MKKLLSTAAGLLLSLTATSVSAHYV gave an AmyQ secretion efficiency of 4.36.

Sequence MKKAAAVLLSLGLVFEDEDEAGHVAEAKTK showed an AmyQ secretion efficiency of 5.2.

Sequence MTTAAAVLLSLGLVFGFSYGAGHVAEAKTK showed an AmyQ secretion efficiency of 2.82.

As to MFNRLFRVCFLAALIMAFTLPNSVYTQKP, the AmyQ secretion efficiency was determined as 4.86.

MLKKKWMVGLLAGCLAAGGFSYNKFATEN came in with an AmyQ secretion efficiency of 7.42.

MKRRFMKASLVLFAVVFVFAVKGAPAKAETH came in with an AmyQ secretion efficiency of 2.6.

Sequence MKLAKRVSALTPSTTLAITTKAKEL came in with an AmyQ secretion efficiency of 6.55.

The sequence MGGMSCSILVVSVTLFFSFLTIGPLAHAQNS returned an AmyQ secretion efficiency of 2.24.
